Source: the supplement of paper PMC11865577

Experiments:
Assay in all cases: pull-down binding Z-score (relative to library population); higher = stronger binding
Conditions in all cases: RNA library: Library-2
[1] = system: TO-3-N3 (biotin conjugate)
How it was run: (§1)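 Binding is given as a Z-score against the library mean and standard deviation, calculated after removing the beads-only signal and averaging barcoded replicate probes without their highest and lowest values. Cy5- or Cy3-end-labelled RNA library (1 μg) was heat-folded in phosphate/NaCl/KCl buffer and incubated 60 min at 25 °C with streptavidin beads bearing 100 pmol of biotin-conjugated small molecule. After three washes, RNA eluted in hot SDS was hybridised to a DNA barcode microarray for 20 h at 55.5 °C.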

[2] = system: TO-3-N3-2 (biotin conjugate)
How it was run: as §1

[3] = system: TO-N3 (biotin conjugate)
How it was run: as §1

[4] = system: TO-N3-2 (biotin conjugate)
How it was run: as §1

Row | Sequence | pull-down binding Z-score [1] | pull-down binding Z-score [2] | pull-down binding Z-score [3] | pull-down binding Z-score [4]
1 | GGGACUGAGAAUUAGCUCAUCCU [IAV_invivo_PB2_1_Motif_14+IAV_invivo_PB2_1_Motif_14] | -0.573 | -0.318 | -0.536 | 0.208
2 | GGGACUUAUGAUUAUCCC [IAV_invivo_HA_4_Motif_18+IAV_invivo_HA_4_Motif_18] | 0.293 | 0.126 | -0.122 | -0.911
3 | GGGAGAGACGAACAGUCGAUUGCC [IAV_invivo_PB2_1_Motif_17+IAV_invivo_PB2_1_Motif_17] | -0.434 | -0.268 | 0.0259 | 0.839
4 | GGGAGAUAACAUUCC [IAV_invivo_M1_M2_7_Motif_7+IAV_invivo_M1_M2_7_Motif_7] | -0.149 | -0.0296 | -0.16 | -0.107
5 | GGGAGAUUAAUGGUCCU [IAV_invivo_PB2_1_Motif_25+IAV_invivo_PB2_1_Motif_25] | 0.341 | 0.00669 | 0.327 | 0.225
6 | GGGAGCAAACCC [IAV_invivo_PB1_2_Motif_31+IAV_invivo_PB1_2_Motif_31] | -0.179 | -0.259 | -0.425 | 0.11
7 | GGGAGCUAUAAACAGCAGUCUCCC [IAV_invivo_HA_4_Motif_12+IAV_invivo_HA_4_Motif_12] | 0.403 | 0.213 | 0.537 | 0.468
8 | GGGAGUCUUCGAGCUCUC [IAV_invivo_NP_5_Motif_24+IAV_invivo_NP_5_Motif_24] | -0.194 | -0.548 | -0.358 | -0.555
9 | GGGAUUAUCCU | -0.811 | -0.465 | -0.927 | -0.985
10 | GGGCAAGCUGUCUCAAAUGUCC [IAV_invivo_PA_3_Motif_10+IAV_invivo_PA_3_Motif_10] | -0.508 | -0.226 | -0.543 | 0.0264
11 | GGGCCACUGCCAGAAGACAAUGAACCAAGUGGUUAUGCCC [IAV_invivo_PB1_2_Motif_5+IAV_invivo_PB1_2_Motif_5] | -0.323 | 0.0011 | 0.0266 | 0.713
12 | GGGCCUCCCUGUUCUCAGCGGUCC [IAV_invivo_PA_3_Motif_11+IAV_invivo_PA_3_Motif_11] | -0.00636 | -0.456 | -0.152 | -0.287
13 | GGGCUAGAUUCCC [DMSMaPseq_invitro_SARS-CoV-2_Motif_228] | -0.623 | -0.264 | -0.867 | -0.533
14 | GGGCUCAGAAUAUGACUAUGUCAUAUUCACUCAAACCACUGAAACAGCUC [SHAPE_invitro_SARS-CoV-2_Motif_328] | -0.515 | 0.0239 | -0.428 | -0.4
15 | GGGCUCAUACCC [IAV_invivo_HA_4_Motif_7+IAV_invivo_HA_4_Motif_7] | 0.721 | 0.875 | 0.483 | 0.397
16 | GGGCUGUGACCACUGAAGUGGCAUUUGGCCU [IAV_invivo_M1_M2_7_Motif_9+IAV_invivo_M1_M2_7_Motif_9] | -0.255 | -0.255 | -0.176 | 0.272

Row | Sequence | pull-down binding Z-score [1] | pull-down binding Z-score [2] | pull-down binding Z-score [3] | pull-down binding Z-score [4]
17 | GGGGACGACCU [IAV_invivo_NA_6_Motif_17+IAV_invivo_NA_6_Motif_17] | 0.479 | -0.417 | 0.481 | -0.0675
18 | GGGGAUCUAUCAGAUUCUGGCGAUCUACUCAACUGUCGCCAGUUCACUGGUGCUUUUGGUCUCC [IAV_invivo_HA_4_Motif_19+IAV_invivo_HA_4_Motif_19] | 0.57 | 0.123 | 0.629 | 0.69
19 | GGGGCCGGGGCCGGGGCCGGGGCCGGGGCCGGGGCC [G4_r(GGGGCC)8] | 4.47 | 4.66 | 3.9 | 3.77
20 | GGGGCGUUUAUGCAACCC [IAV_invivo_PB1_2_Motif_33+IAV_invivo_PB1_2_Motif_33] | -0.754 | -0.277 | -0.497 | -0.334
21 | GGGGCUGAGAAACCAAAGUUUC [IAV_invivo_PA_3_Motif_3+IAV_invivo_PA_3_Motif_3] | 0.484 | 0.214 | 0.788 | 0.822
22 | GGGGUGAAGAGGAUACUUACCUG [U1snRNP5ss-12] | 0.145 | 0.365 | 0.427 | 0.523
23 | GGGGUGUACAUCAAUACUGCCUU [IAV_invivo_PA_3_Motif_19+IAV_invivo_PA_3_Motif_19] | 1.11 | 0.332 | 1.4 | 0.595
24 | GGGUACGACUUUGAAAGGGAGGGAUACUCUCUAGUCGGAAUAGACCC [IAV_invivo_NP_5_Motif_16+IAV_invivo_NP_5_Motif_16] | 0.779 | 0.439 | 0.986 | 0.638
25 | GGGUAGGGUUUGGGGGAGAGCGUGGGCUGGGGUUCAGGGACA [pre-miRNA-1229_WT_FL] | 7.43 | 8.09 | 6.62 | 5.13
26 | GGGUAGGGUUUGGGGGAGAGUGUGGGCUGGGGUUCAGGGACA [pre-miRNA-1229_SNP_FL] | 6.68 | 7.5 | 6.27 | 4.79
27 | GGGUAGUGGUGAGCAUUGACC [IAV_invivo_PB2_1_Motif_22+IAV_invivo_PB2_1_Motif_22] | 1.17 | 0.601 | 1.28 | 0.804
28 | GGGUCGGUUGCUCACAAGUCCUGCCUGCCUGCCU [IAV_invivo_NP_5_Motif_15+IAV_invivo_NP_5_Motif_15] | 0.283 | 0.184 | 0.865 | 1.7
29 | GGGUGGGUGGGUGGGUGGGUGGGU [G4_r(GGGU)6] | 9.01 | 10.9 | 7.43 | 5.53
30 | GGGUGGGUGGGUGGGUGGGUGGGUGGGUGGGU [G4_r(GGGU)8] | 9.08 | 10.2 | 7.37 | 5.15
31 | GGGUUGGGUUGGGUUGGGUUGGGUUGGGUU [G4_r(GGGUU)6] | 7.99 | 10.1 | 6.75 | 5.08
32 | GGGUUGGGUUGGGUUGGGUUGGGUUGGGUUGGGUUGGGUU [G4_r(GGGUU)8] | 8.9 | 10.2 | 7.46 | 5.93
